The target in the assay is Tetanus neurotoxin (Clostridium tetani, UniProt P04958). Kind of assay: cryo-EM structure; epitopes of TT104 and TT110 on TeNT determined via cryo-EM. Particulars: both partners purified.

The values below come from PMC8876628 (Toxins, 2022).

Chain of Tetanus neurotoxin (P04958 whole entry): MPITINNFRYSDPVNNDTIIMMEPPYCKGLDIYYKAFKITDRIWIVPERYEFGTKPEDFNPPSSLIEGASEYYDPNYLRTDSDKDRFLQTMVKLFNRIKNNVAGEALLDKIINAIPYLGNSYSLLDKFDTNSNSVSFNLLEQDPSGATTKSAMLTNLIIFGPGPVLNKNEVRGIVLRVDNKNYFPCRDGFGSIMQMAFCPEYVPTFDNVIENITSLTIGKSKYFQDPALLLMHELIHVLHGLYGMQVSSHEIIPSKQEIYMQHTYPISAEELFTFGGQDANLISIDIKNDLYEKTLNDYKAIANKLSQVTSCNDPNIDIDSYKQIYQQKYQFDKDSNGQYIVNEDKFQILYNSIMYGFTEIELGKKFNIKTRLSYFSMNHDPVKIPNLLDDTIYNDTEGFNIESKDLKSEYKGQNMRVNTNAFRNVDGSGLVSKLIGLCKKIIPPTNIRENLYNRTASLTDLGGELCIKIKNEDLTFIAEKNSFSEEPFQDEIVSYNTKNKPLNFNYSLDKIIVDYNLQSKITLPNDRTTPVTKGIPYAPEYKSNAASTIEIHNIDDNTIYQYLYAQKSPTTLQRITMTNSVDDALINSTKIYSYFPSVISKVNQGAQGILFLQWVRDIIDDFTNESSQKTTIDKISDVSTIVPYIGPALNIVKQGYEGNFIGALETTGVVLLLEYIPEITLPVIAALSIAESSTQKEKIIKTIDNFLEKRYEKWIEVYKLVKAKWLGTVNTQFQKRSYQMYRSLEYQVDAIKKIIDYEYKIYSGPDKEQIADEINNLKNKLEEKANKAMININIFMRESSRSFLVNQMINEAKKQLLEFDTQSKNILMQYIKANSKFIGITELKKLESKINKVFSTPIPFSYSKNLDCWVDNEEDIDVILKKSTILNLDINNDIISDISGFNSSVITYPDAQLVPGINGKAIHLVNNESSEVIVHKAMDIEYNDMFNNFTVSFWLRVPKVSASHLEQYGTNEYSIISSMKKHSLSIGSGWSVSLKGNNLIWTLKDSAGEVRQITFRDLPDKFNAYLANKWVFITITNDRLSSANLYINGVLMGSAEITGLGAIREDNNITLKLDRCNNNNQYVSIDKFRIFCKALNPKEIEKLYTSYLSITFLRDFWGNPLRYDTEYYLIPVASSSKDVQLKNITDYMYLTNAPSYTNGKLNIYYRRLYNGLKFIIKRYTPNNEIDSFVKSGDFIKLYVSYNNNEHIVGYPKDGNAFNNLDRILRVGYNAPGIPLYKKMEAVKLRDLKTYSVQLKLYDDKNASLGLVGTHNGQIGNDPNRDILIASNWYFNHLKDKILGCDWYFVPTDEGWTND

B1: TT104 human monoclonal antibody (antibody, V domains shown)
VH: QLQLQESGPGLVRPSETLSLTCSVSDDSMGSSTYYWAWIRQPPGKGLEWIGNVYYNGVTYYNSSLESRLTLSIDPSKNQFSLILSSVTAADTAVYYCARQADNWFDPWGQGTLVTVSS
VL: EIMMTQSPATLSVSPGERATLSCRASQSVGSDLAWYQQKPGQAPRLLIYGASYRATGIPARFSGGGSGTEFTLTISSMQSEDFAVYYCQQYYNWPPYTFGQGTKVEIK
notes: also called humAb TT104
As for B1, the binding result is “binds”.

B2: TT110 human monoclonal antibody (antibody, V domains shown)
VH: QVQLMQSGAEVQKPGASVKVSCQASGFTLNNYYIHWLRQAPGQGFEWMGIFNPSSGTRTYAQKFQGRISMTADASTTTLYMELSGLTSEDAGVYFCARIGGSTYGRLMTYYFDHWGQGTVVAVSS
VL: EVVLTQSPVTLSVSPGGRGTLSCRASRSISTTLAWYQQKPGQAPRLLIYGASTRATGIPARFTGSGSGTEFTLTISSLQSEDFAVYYCQQYNDWPVTFGQGTQVEVK
notes: also called humAb TT110
Take B2: the binding result was “binds”.
